In PMC12485088 one finds stoichiometry N (gp120 per CXCR4 tetramer), stoichiometry N (protomers in the oligomer) and stoichiometry N (protomers in the oligomer (main peak)) data, which are given here for 2 molecules.

In test [1] the target is full-length human CXCR4 with a C-terminal Flag-tag (human) (UniProt P61073). The test can be described thus: cryo-EM structure.
The target of test [2] is T1, full-length human CXCR4 with a C-terminal Flag-tag (human), P61073.
T1 chain: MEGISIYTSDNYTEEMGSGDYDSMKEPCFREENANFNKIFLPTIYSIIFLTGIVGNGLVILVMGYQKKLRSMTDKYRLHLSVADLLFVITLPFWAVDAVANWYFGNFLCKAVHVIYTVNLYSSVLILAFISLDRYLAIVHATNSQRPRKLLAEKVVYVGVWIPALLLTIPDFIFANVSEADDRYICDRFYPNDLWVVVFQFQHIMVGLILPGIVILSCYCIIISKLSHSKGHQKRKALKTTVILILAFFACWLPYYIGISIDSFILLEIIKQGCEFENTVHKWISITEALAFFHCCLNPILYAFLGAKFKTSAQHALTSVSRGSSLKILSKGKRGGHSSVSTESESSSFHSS
In words: cryo-EM structure. The settings on record: remark: other sources report otherwise.

The target of test [3] is T1, full-length human CXCR4 with a …. The test can be described thus: native gel or EMSA. The settings on record: remark: other sources report otherwise.

Molecule “gp120^HIV-2-CD4 complex (from UniProt P01730 26-388)” gave a stoichiometry N (gp120 per CXCR4 tetramer) in test [1] of 2.

B1: full-length human CXCR4 with a C-terminal Flag-tag, P61073 1-352 (receptor)
chain: MEGISIYTSDNYTEEMGSGDYDSMKEPCFREENANFNKIFLPTIYSIIFLTGIVGNGLVILVMGYQKKLRSMTDKYRLHLSVADLLFVITLPFWAVDAVANWYFGNFLCKAVHVIYTVNLYSSVLILAFISLDRYLAIVHATNSQRPRKLLAEKVVYVGVWIPALLLTIPDFIFANVSEADDRYICDRFYPNDLWVVVFQFQHIMVGLILPGIVILSCYCIIISKLSHSKGHQKRKALKTTVILILAFFACWLPYYIGISIDSFILLEIIKQGCEFENTVHKWISITEALAFFHCCLNPILYAFLGAKFKTSAQHALTSVSRGSSLKILSKGKRGGHSSVSTESESSSFHSS
B1 displayed a stoichiometry N (protomers in the oligomer) in test [2] of 4. Moreover, the stoichiometry N (protomers in the oligomer (main peak)) in test [3] turned out to be 4.
